molecular target: T1, H-2 K^d molecules purified by affinity chromatography (human, UniProt P61769 21-119; P01902 22-305); assay: radiolabeled peptide inhibition assay, purified H-2 K^d
T1 construct: MHC class I molecule, 1-10 nM in the assay, with added human beta-2 microglobulin; also called purified MHC molecules
Text: (§1) Binding assays. […] Under the conditions utilized, where [label]<[MHC] and IC₅₀≧[MHC], the measured IC50 values are reasonable approximations of the KD values.

IC50 [nM] | Binder
6160 | TYIRPFETKV (Mut of TYIRP(f/L)ETKV; Meth A) [Ccdc85c Mut peptide]
20900 | NYLLSLVAVVL [Serinc1 WT peptide]
2680 | NYLLSLVAVML (CMS5) [Serinc1 Mut peptide]
< 0.1 | HYINMSLPI (WT of HYINM(i/S)LPI) [Ufsp2 WT peptide]
0.23 | HYINMILPI (Mut of HYINM(i/S)LPI; Meth A) [Ufsp2 Mut peptide]
1270 | HYLSAILRL (WT of HYLS(s/A)ILRL) [Pacs2 WT peptide]
41 | HYLSSILRL (Mut of HYLS(s/A)ILRL; Meth A) [Pacs2 Mut peptide]
1480 | YYVPLLKRVPS [Alms1.2 WT peptide]
421 | YYVPLLKRVPL (Meth A) [Alms1.2 Mut peptide]
3.2 | CYAKLKEQL (WT of CYAK(v/L)KEQL) [Ssx2ip WT peptide]
26 | CYAKVKEQL (Mut of CYAK(v/L)KEQL; CMS5) [Ssx2ip Mut peptide]
60 | AYCETCWEW [Apc WT peptide]
23 | AYCETCWEL (Meth A) [Apc Mut peptide]

molecular target: T1, H-2 K^d molecules purified by affinity …; assay: as above; remark: another data set of the same source
Text: as §1

IC50 [nM] | Binder
47100 | DYVPMEQPRPP (CMS5) [Alkbh6.4 Mut peptide]
28600 | AYAKQFAA (Mut of A(y/D)AKQFAA; Meth A) [Ube4a.2 Mut peptide]
17600 | AYILAALTKLQ (Meth A) [Trim26.2 Mut peptide]
27100 | LYVSKLNGP (Mut of L(y/D)VSKLNGP; Meth A) [Galnt1 Mut peptide]
51600 | GFHGCIHEVL (CMS5) [Slit3 Mut peptide]
12 | LDYERIHKKML [Ugdh WT peptide]
600 | LYYERIHKKML (Meth A) [Ugdh Mut peptide]
261 | PDKRLKAEPA [Prrc2a WT peptide]
1450 | PYKRLKAEPA (Meth A) [Prrc2a Mut peptide]
6260 | PDLTQYAIIM [Dhx8.4 WT peptide]
6570 | PYLTQYAIIM (CMS5) [Dhx8.4 Mut peptide]
7050 | QVFPGLMER [Atxn10.1 WT peptide]
82 | SYMLQALCI (Mut of (sy/LD)MLQALCI; Meth A; also called mutant Tnpo3 peptide; sy-MLQALCI) [Tnpo3 Mut peptide]
1650 | PDLTQYAIIML [Dhx8.1 WT peptide]
2190 | PYLTQYAIIML (CMS5) [Dhx8.1 Mut peptide]
1420 | PDLTQYAII (WT of P(y/D)LTQYAII) [Dhx8.3 WT peptide]
244 | PYLTQYAII (Mut of P(y/D)LTQYAII; CMS5) [Dhx8.3 Mut peptide]
4540 | ELQGLLEDER [Ccdc136 WT peptide]
58 | KYMSMLEER (Mut of K(y/D)MSMLEER; Meth A) [Ckap5 Mut peptide (Table 5, 9-mer)]

IC50 [nM] | Binder
2470 | HYLQGSNA (Mut of H(y/D)LQGSNA; Meth A) [Fiz1 Mut peptide]
1.1 | ADILAALTKL [Trim26.1 WT peptide]
622 | AYILAALTKL (Meth A) [Trim26.1 Mut peptide]
12 | AYAKQFAAI (Mut of A(y/D)AKQFAAI; Meth A) [Ube4a.1 Mut peptide]
1620 | GDSVLHLAI (WT of G(y/D)SVLHLAI) [Nfkb1 WT peptide]
0.26 | GYSVLHLAI (Mut of G(y/D)SVLHLAI; Meth A) [Nfkb1 Mut peptide]
143 | IYGVVARNRAL (Mut of I(y/D)GVVARNRAL; Meth A) [Dis312.1 Mut peptide]
8510 | KLQRQYRSPRR [Mast2 WT peptide]
10100 | KLQRQYRSPRL (CMS5) [Mast2 Mut peptide]
17 | SDRLPSSRKK [M112 WT peptide]
1150 | VYLTCRLEKPA (Meth A) [Gapdh Mut peptide]
60900 | DYVPMEQP (Mut of D(y/D)VPMEQP; CMS5) [Alkbh6.1 Mut peptide]
146 | LDMLQALCI (WT of (sy/LD)MLQALCI) [Tnpo3 WT peptide]
69500 | PALKSEEKTL (CMS5) [Stau1.3 Mut peptide]
1410 | LYDVDAAF (Mut of L(y/D)DVDAAF; Meth A) [Cpsf2 Mut peptide]
1640 | EYLDLQTQ (Mut of E(y/D)LDLQTQ; Meth A) [Zfp236.1 Mut peptide]
5110 | SEDKIKAIP [Rangap1 WT peptide]
264 | LYHTRPTAL (Mut of L(y/D)HTRPTAL; Meth A) [Kdm4b Mut peptide]
